Data on six molecules can be found in patent US20240317840A1 (Novartis, published 2024).

Usually IC50 stands for the point on the concentration scale where inhibition reaches its midpoint. A low value points to greater potency in that assay. As a reminder, the Kd is the concentration at which binding is half-saturated. A lower Kd goes with tighter binding. A word on the EC50 (read off the curve): it is the midpoint of the concentration-response curve. A higher EC50 (read off the curve) goes with a need for much substance.

Changes are numbered by the printed parent chain. Like-named read-outs stand apart in the source and are kept apart here.

Assay [1] addresses HBsAg of HBV genotype D, serotype ayw (Hepatitis B virus). Description: cell-based or functional assay.
For assay [2], the target named is T1, HBsAg of HBV genotype A (AY934772) (Hepatitis B virus).
T1 construct: captured from supernatant by horse polyclonal anti-HBsAg
Description: sandwich ELISA, captured HBsAg from culture supernatant. Background: In an ELISA, binding on a coated surface is turned into a signal by an enzyme label.
Description: (§1) The binding of anti-HBsAg antibodies to the 4 major genotypes (A-D) of HBV were analyzed by sandwich ELISA.

The target of assay [3] is HBsAg of HBV genotype B (AF 121245) (Hepatitis B virus). Described as above.
Description: as §1
Assay [4] addresses HBsAg of HBV genotype C (DQ087960) (Hepatitis B virus). Described as above.
Description: as §1
The target in assay [5] is HBsAg clinical mutation G145R (Hepatitis B virus). The assay is described as follows: sandwich ELISA, captured mutant HBsAg from culture supernatant.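 Note: Anti-HBsAg antibodies tested for binding to mutant HBsAg secreted by stably transfected cell lines, supernatant incubated 1 h on antibody-coated plates.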
Description: (§2) The binding of anti-HBsAg antibodies to 4 well characterized vaccine and/or HBsAg clinical mutations of HBsAg (G145R, D144A, T126S, M133L) were analyzed by sandwich ELISA. […] Supernatant collected from HBsAg cell-culture derived clinical mutation stables (G145R, D144A, T126S, M133L) was allowed to bind antibody coated plates for 1 hour.
Assay [6] addresses HBsAg clinical mutation D144A (Hepatitis B virus). Described as above.
Description: as §2
In assay [7] the target is HBsAg clinical mutation T126S (Hepatitis B virus). The description is as above.
Description: as §2
In assay [8] the target is HBsAg clinical mutation M133L (Hepatitis B virus). The description is as above.
Description: as §2
A further assay concerns the target T2, HBsAg AD serotype (Hepatitis B virus).
T2 construct: also called HBsAg serotype AD
The assay is described as follows: SPR Biacore T200, HBsAg particles immobilized, antibody as analyte, 1:1 fit. (SPR reads the build-up and loss of mass on a sensor chip optically.)

A further assay has as its target T3, HBsAg AY serotype (Hepatitis B virus).
T3 construct: also called HBsAg serotype AY
The assay is described as above.

For assay [9], the target named is HBsAg clinical mutation T126S (Hepatitis B virus). Description: sandwich ELISA, mutant HBsAg from cell supernatant captured on horse polyclonal anti-HBsAg, antibody titrated, absorbance 450 nm.
In assay [10] the target is HBsAg clinical mutation M133L (Hepatitis B virus). The description is as above.
For assay [11], the target named is HBsAg clinical mutation D144A (Hepatitis B virus). The assay is described as above.
For assay [12], the target named is HBsAg clinical mutation T126S (Hepatitis B virus). The description is as above. This is another data set of the same source.
The target is the same in assay [13]. Described as above. This is another data set of the same source.
For assay [14], the target named is HBsAg clinical mutation M133L (Hepatitis B virus). The assay is described as above. This is another data set of the same source.
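Throughout, for Kd: Anti-HBsAg antibodies assessed for binding against both major HBsAg serotypes, AY and AD.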

Description for HBsAg AD serotype: (§3) Binding affinity interaction (KD) of the anti-HBsAg antibodies with the two major serotypes of HBsAg, AY and AD, was determined utilizing surface plasma resonance (SPR) technology.
Description for HBsAg AY serotype: as §3

B1: NOV2603 (antibody, human IgG1, kappa, V domains shown)
VH: QVQLVQSGAEVKKPGASVKVSCKASGYTFTSYYMHWVRQAPGQGLEWMGIISPSGGSTSYAQKFQGRVTMTRDTSTSTVYMELSSLRSEDTAVYYCARDWEGGDPYGYYYAFDYWGQGTLVTVSS
VL: not shown
notes: Full human IgG1 (kappa) expressed in CHO cells
As to B1, the “Virus neutralization EC50” value in assay [1] turned out to be 0.14 nM. Further, the IC50 worked out at 2.3 nM in assay [2]; 1.5 nM in assay [3]; 3.6 nM in [4]; 0.33 nM in [5]; 1.34 nM in [6]; 0.06 nM in [7]. The IC50 in [8] turned out to be 0.072 nM. The figures for the Kd with HBsAg AD serotype and with HBsAg AY serotype were 15.5 nM and 3.1 nM, respectively. The “EC50 (read off the curve)” value in assay [9] was approximately 0.06 nM; in assay [10] it was approximately 0.07 nM.

B2: NOV3212 (antibody, human IgG1, kappa, V domains shown)
VH: B1 VH with Y32L, Y33E, S52E
VL: not shown
notes: as for B1
As to B2, the “Virus neutralization EC50” value in assay [1] turned out to be 0.11 nM. The half-maximal inhibitory concentration (IC50) in assay [2] was determined as 0.23 nM; in assay [3], 0.045 nM; in assay [4], 0.068 nM; in assay [5], 0.033 nM; in assay [6], 0.079 nM; in [7] it was 0.012 nM. Moreover, the IC50 in [8] was 0.012 nM. Moreover, the equilibrium dissociation constant (Kd) with HBsAg AD serotype was 1.1 nM; in the assay with HBsAg AY serotype, 0.6 nM. The “EC50 (read off the curve)” value was approximately 0.1 nM in assay [11] and approximately 0.02 nM in assay [12].

B3: NOV3357 (antibody, human IgG1, kappa, V domains shown)
VH: EVQLLESGGGLVQPGGSLRLSCAASGFTFSPHAMSWVRQAPGKGLEWVSAISDSGGSTHYADSVKGRFTISRDNSKNTLYLQMNSLRAEDTAVYYCARDDDGWSGYDYWFDYWGQGTLVTVSS
VL: DIQMTQSPSSLSASVGDRVTITCRASQSISPYLNWYQQKPGKAPKLLIYAADSLQSGVPSRFSGSGSGTDFTLTISSLQPEDFATYYCQQSYKIPLTFGQGTKVEIKR
notes: as for B1
For B3, in assay [1], the “Virus neutralization EC50” value is 0.056 nM. Besides, the IC50 in assay [2] was found to be 0.03 nM; in [3], 0.017 nM; in [4], 0.016 nM; in assay [5], 5.5 nM; in assay [6], 2.1 nM; in assay [7], 0.22 nM. Also, half-maximal inhibition in [8] (IC50) required 0.67 nM. Also, the figures for the Kd with HBsAg AD serotype and with HBsAg AY serotype were 0.18 nM and 0.11 nM, respectively. Further, the “EC50 (read off the curve)” value in assay [13] and in assay [14] was approximately 0.1 nM throughout.

B4: NOV3836 (antibody, human IgG1, kappa, V domains shown)
VH: QVQLVESGGGVVQPGRSLRLSCAASGFTFERYGMHWVRQAPGKGLEWVAGIWHEGSHKYYADSLRGRFTISRDNAKNTLDLQLNRLRAEDTSVYYCVRQTNRGRLDDAFDIWGQGTMVTVSS
VL: DIQMTQSPSSLSAAVGDRVTISCRASQTISSYLNWYQQKPGEAPKLLIYAASTLQSGVPSRFGGSGSGTDFTLTISSLQPEDSATYYCQQNYDTLWTFGQGTKVEIKR
For the molecule B4, the “Virus neutralization EC50” value in assay [1] is 0.017 nM.

B5: NOV3834 (antibody, human IgG1, kappa, V domains shown)
VH: B4 VH with E30N, E54D
VL: B4 VL
notes: as for B1
As to B5, the “Virus neutralization EC50” value in [1] turned out to be 0.24 nM. Besides, the IC50 in [2] was 2 nM; in assay [3], 1.2 nM; in [4], 16 nM; in [7] it was 7.4 nM; in assay [8], 9.2 nM. Also, the Kd with HBsAg AD serotype turned out to be 40 nM; with HBsAg AY serotype, 5.3 nM.

B6: NOV3835 (antibody, human IgG1, kappa, V domains shown)
VH: B4 VH with E30D
VL: B4 VL
In the case of B6, the “Virus neutralization EC50” value in assay [1] stood at 0.72 nM.
